# Patent publication US11352399B2, “Peptide for toll-like receptor (TLR) inhibition and pharmaceutical composition comprising same” (GENESEN CO., LTD., priority 2017, dated 2022)
# Primed or numbered codes have the meaning given here. Ends that are not written are not given here. FITC′ = fluorescein isothiocyanate
# How the values were obtained:
# hPBMC cells = test: NO secretion in LPS-treated hPBMC cells; format: cell-based, human; settings: together with LPS, FIG. 12(b)
# hTLR4 (human TLR4) = biological target: T1, hTLR4 (human TLR4) (Homo sapiens, UniProt O00206); test: SEAP activity (NF-κB activity) in HEK-Blue-hTLR4 cells; format: cell-based; settings: for NF-κB activity (SEAP activity): together with LPS, FIG. 12(a); for SEAP activity, CPP sequence not linked: 12.5, 25, 50 μM, FIG. 1(b)
# T1 construct: host or cells: HEK-Blue-hTLR4 (HEK293-derived reporter line)
# T1 sequence (O00206 24-839): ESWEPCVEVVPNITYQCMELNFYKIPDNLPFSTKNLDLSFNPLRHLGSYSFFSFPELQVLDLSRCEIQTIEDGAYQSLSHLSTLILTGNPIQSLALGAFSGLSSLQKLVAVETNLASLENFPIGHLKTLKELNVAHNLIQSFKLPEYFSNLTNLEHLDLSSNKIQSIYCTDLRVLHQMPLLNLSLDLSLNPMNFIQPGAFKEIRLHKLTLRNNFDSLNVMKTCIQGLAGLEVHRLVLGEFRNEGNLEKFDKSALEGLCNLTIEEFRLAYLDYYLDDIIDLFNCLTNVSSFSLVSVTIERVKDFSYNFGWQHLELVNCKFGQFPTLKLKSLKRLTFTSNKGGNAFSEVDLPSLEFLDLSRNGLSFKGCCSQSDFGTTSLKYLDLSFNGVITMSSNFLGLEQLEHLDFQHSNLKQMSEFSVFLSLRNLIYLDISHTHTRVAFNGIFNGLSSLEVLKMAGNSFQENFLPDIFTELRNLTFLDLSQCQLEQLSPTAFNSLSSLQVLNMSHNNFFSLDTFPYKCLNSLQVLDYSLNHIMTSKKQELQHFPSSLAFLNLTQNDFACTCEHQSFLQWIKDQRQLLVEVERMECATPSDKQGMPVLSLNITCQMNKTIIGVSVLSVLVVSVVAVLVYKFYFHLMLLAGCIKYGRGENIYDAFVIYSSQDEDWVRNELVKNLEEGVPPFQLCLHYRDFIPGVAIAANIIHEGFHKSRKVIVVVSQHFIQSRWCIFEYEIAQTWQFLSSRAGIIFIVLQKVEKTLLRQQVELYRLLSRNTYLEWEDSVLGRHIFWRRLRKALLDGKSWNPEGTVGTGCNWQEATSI
# T1 sequence (Q9Y6Y9 17-160 partner limits assumed): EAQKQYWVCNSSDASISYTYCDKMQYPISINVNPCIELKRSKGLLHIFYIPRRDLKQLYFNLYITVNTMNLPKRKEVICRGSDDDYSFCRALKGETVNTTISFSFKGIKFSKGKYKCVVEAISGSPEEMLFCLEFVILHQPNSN
# Description: HEK-Blue™-hTLR4 cells were dispensed into 24-well plates (BD Biosciences) to a cell number of 2×10^5 cells/well, and incubation was performed overnight. The next day, the culture was removed and medium replacement was performed. Then, a portion (200 μl) of the culture was transferred to a microcentrifuge tube and heated at 65° C. for 10 minutes using a heating block (FINEPCR. Co., Seoul, Korea). Subsequently, the culture was transferred to 96-well plates (BD Biosciences), and absorbance was measured at 405 nm using the HEK-Blue™ detection kit (InvivoGen) and a microplate reader spectrophotometer (Molecular Devices Inc., Silicon Valley, Calif., USA), to analyze an expression level of SEAP (secreted alkaline phosphatase).
# To this end, the inducible secreted embryonic alkaline phosphatase (SEAP) reporter gene was placed under the control of an IL-12 p40 minimal promoter (IL-12 p40 is produced by activation of NF-κB and AP-1 (activator protein 1) after stimulation of TLR4) which contains sites where DNAs of NF-κB and AP-1 bind. Then, HEK-Blue™-hTLR4 cells were treated with varying concentrations of TIP or TIP (TIP W/O CPP), to which CPP is not linked, at 12.5, 25, 50 μM, and then an average value of SEAP activity was calculated to measure TLR4 activity. The results are illustrated in FIGS. 1(a) and 1(b).
# The results are illustrated in FIGS. 12(a) and 12(b).
# TLR4 = biological target: T2, TLR4 (Homo sapiens, UniProt O00206); test: Confocal microscopy of TIP1-FITC and TLR4 in THP1 cells; format: cell-based; settings: TIP1-FITC and LPS
# T2 construct: endogenous in cells; host or cells: THP1
# T2 sequence (O00206 24-839): as the sequence (O00206 24-839) above
# Description: (§1) RAW 264.7 cells and THP1 cells were dispensed into 24-well plates to a cell number of 2×10^5 cells/well, and then grown in an incubator overnight. Subsequently, combined treatment with TIP1 and LPS was performed. After 24 hours, the RAW 264.7 cells and the THP1 cells were fixed with 3.7% formaldehyde (Sigma-Aldrich Co. LLC) for 15 minutes, and immersed into 0.2% Triton X-100 (AMRESCO, Solon, Ohio, USA) for 15 minutes. Then, washing with PBS was performed three times and blocking with 2% BSA solution was performed. The blocked cells were incubated for 2 hours with TIP1-FITC (25 μM; Peptron, Inc., Daejeon, Korea), p-p65, TLR4, Myd88, TOM20 (1:1000; Santa Cruz Biotechnology Inc.), and NLRP3 (Adipogen) antibodies. Then, washing with PBS was performed three times. Subsequently, the cells were incubated with AlexaFluor […] and/or 488 and/or 546-conjugated secondary antibodies (Invitrogen, Carlsbad, Calif., USA) for 1 hour, and washed three times with PBS. Subsequently, the cells were stained at room temperature for 15 minutes using 5 μM Hoechst 33258 (Sigma-Aldrich Co.), and the number of the fluorescently stained cells was counted using a confocal laser scanning microscope (LSM-700, Carl Zeiss MicroImaging GmbH). The images were analyzed using Zen 2009 software.
# (§2) The results are illustrated in FIG. 13.
# MyD88 = biological target: T3, MyD88 (Homo sapiens, UniProt Q99836); test: Confocal microscopy of TIP1-FITC and MyD88 in THP1 cells; format: cell-based; settings: TIP1-FITC and LPS
# T3 construct: endogenous in cells; host or cells: THP1
# T3 sequence (Q99836 whole entry): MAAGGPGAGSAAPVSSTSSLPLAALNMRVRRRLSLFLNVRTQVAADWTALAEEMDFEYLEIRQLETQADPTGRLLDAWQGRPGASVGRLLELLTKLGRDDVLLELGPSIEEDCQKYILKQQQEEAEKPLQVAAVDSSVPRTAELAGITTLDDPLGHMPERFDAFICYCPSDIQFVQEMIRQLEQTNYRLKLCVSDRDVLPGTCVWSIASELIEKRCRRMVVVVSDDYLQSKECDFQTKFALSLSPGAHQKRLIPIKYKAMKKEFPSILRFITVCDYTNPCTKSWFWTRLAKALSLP
# Description: as §1, §2
Substance,NO secretion level (hPBMC cells),NF-κB activity (SEAP activity) (hTLR4 (human TLR4)),"SEAP activity, CPP sequence not linked (hTLR4 (human TLR4))",other results
RQIKIWFQNRRMKWKKSHCR (TIP1-2),also inhibited NO secretion,also decreased NF-κB activity,,
RQIKIWFQNRRMKWKKTIPLLS (TIP2) [used as a control],,,,"LPS-induced SEAP activity (hTLR4 (human TLR4); TIP 12.5, 25, 50 μM, then LPS, FIG. 1(a)): unlike TIP2, TIP1 decreased LPS-induced SEAP activity"
RQIKIWFQNRRMKWKKVLLI (TIP1-3),no or insignificant changes were observed,no or insignificant changes were observed,,
SHCRVLLI (Decoy peptide 1) [TIP1 W/O CPP],,,neither TIP1 (TIP1 W/O CPP) nor TIP2 (TIP2 W/O CPP) changed SEAP activity,
TIP1-FITC: TIP1 with fluorescein isothiocyanate (FITC) bound to the N-terminus ({FITC′}-RQIKIWFQNRRMKWKKSHCRVLLI),,,,interaction of TIP1-FITC with TLR4 (TLR4): strongly bound to each other; interaction of TIP1-FITC with MyD88 (MyD88): formed a weak bond
TIPLLS (Decoy peptide 2) [TIP2 W/O CPP],,,neither TIP1 (TIP1 W/O CPP) nor TIP2 (TIP2 W/O CPP) changed SEAP activity,
